Experiments:
[1] = molecular target: T1, Thrombin (UniProt P00734;P00734 P00734:328-363,P00734:364-622); assay: competition; does not compete with THR2 (binds the other exosite); poor competitor of beacon complex compared with bivalent constructs
[2] = molecular target: T1, Thrombin; assay: FP; nanomolar range only
[3] = molecular target: Single-stranded DNA binding protein (SSB) (Escherichia coli, UniProt P0AGE0 P0AGE0:2-178); assay: FP; nanomolar concentrations, similar range as thrombin; conditions: tags: Sigma; chain copies: 4; label: 5' fluorescein
Single-stranded DNA binding protein (SSB), sequence (P0AGE0 2-178, one chain of several): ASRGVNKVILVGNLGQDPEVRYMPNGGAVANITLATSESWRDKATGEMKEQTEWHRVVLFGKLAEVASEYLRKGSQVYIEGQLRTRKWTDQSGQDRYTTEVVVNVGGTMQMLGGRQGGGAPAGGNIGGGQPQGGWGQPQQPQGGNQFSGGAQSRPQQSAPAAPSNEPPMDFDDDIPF

[4] = molecular target: T1, Thrombin; assay: competition; affinity relative to THR2
[5] = molecular target: T1, Thrombin; assay: EMSA; high affinity; among most efficient competitors (FIG. 16)
[6] = molecular target: T1, Thrombin; assay: fluorescence intensity titration; 50 mM Tris pH 7.5, 100 mM NaCl, 5 mM KCl, 1 mM MgCl2

Binder: AGTCCGTGGTAGGGCAGGTTGGGGTGACT (ssDNA) [THR3 (60-18 [29])]
- binding result [1]: binds

Binder: AGTCCGTGGTAGGGCAGGTTGGGGTGACT (ssDNA) [THR1 (60-18 [29])]
- binding result [2]: binds
- binding result [3]: binds

Binder: GGTTGGTGTGGTTGG (ssDNA) [THR4 (G15D)]
- binding signal [4]: 1.7 fold

B1: THR16/THR17 bivalent (structured_DNA)
DNA 1: GGTTGGTGTGGTTGGTTTTTTTTTTTTTTTTTCTGTCGTTAGTGAAGGTT
DNA 2: AACCTTCACTAACGACAGTTTTTTTTTTTTTTTTTAGTCCGTGGTAGGGCAGGTTGGGGTGACT
- binding result [5]: binds

Binder: GGTTGGTGTGGTTGG (ssDNA) [THR2 (G15D)]
- Kd [6]: 6.3 nM

B2: THR18/THR19 bivalent (structured_DNA)
DNA 1: GGTTGGTGTGGTTGGTTTTTTTTTTTTTTTTTTTTTTTTTTTCTGTCGTTAGTGAAGGTT
DNA 2: AACCTTCACTAACGACAGTTTTTTTTTTTTTTTTTTTTTTTTTTTAGTCCGTGGTAGGGCAGGTTGGGGTGACT
- binding result [5]: binds

Source: patent publication US20140248710, “THREE-COMPONENT BIOSENSORS FOR DETECTING MACROMOLECULES AND OTHER ANALYTES” (Mediomics LLC, published 2014)
